*1 amine or outer side, *2 acyl side, *3 side chain or, on linkers, in order; H or OH if unused. Where no end group is shown, it is not given here. Side-chain parts run from the residue outwards. [ ]: non-standard residue; d: D form. The star is where a group is joined. C18 diacid = O=C(O)CCCCCCCCCCCCCCCCC(=O)*; γGlu = O=C(O)[C@H](CCC(=O)[*:2])N[*:1]; Aib = CC(C)(N)C(=O)O
Assay: Physical stability via ThT fibril formation (ASSAY IVc)
Assay type: physicochemical
Set-up: key to Aggregation (ThT), no added tonicity agent / Aggregation (ThT), 270 mM mannitol: FD = Fibrillation Detected; FND = Fibrillation Not Detected
Settings: for Aggregation (ThT), 270 mM mannitol / Aggregation (ThT), no added tonicity agent: 96 hours
Method: Samples were prepared in a total volume of 0.5 mL API (herein e.g. CPD1) stock solutions were prepared by dissolving API in demineralised water at ambient temperature (typically 25° C.) to achieve 5 and 25 mg/mL API, respectively. 8 working solutions were prepared: 1) 40 mM phosphate pH 6 and 80 μM ThT; 2) 40 mM phosphate pH 6.5 and 80 μM ThT; 3) 40 mM phosphate pH 7 and 80 μM ThT; 4) 40 mM phosphate pH 8 and 80 μM ThT; 5) 40 mM phosphate pH 6, 540 mM mannitol and 80 μM ThT; 6) 40 mM phosphate pH 6.5, 540 mM mannitol and 80 μM ThT; 7) 40 mM phosphate pH 7, 540 mM mannitol and 80 μM ThT; and 8) 40 mM phosphate pH 8, 540 mM mannitol and 80 μM ThT.
200 μL of API stock was mixed with 250 μL working solution, pH was measured and adjusted to target, followed by adding demineralised water to a final volume of 500 μL. Samples were loaded in a 96-well black fluorescence plate (clear bottom) in triplicate 3×150 μL. Data were collected at fixed intervals of 10 min, each preceded by 300 s of automixing (agitation), over a period of 96 hours at 40° C. Physical stability, expressed as lag-time of fibril formation (in hours), was defined as the intersection between two linear regressions representing the initial stable phase and the growth phase.

[1] = 2 mg/mL CPD1, 20 mM phosphate pH 6, 40° C.
[2] = 2 mg/mL CPD1, 20 mM phosphate pH 6.5, 40° C.
[3] = 2 mg/mL CPD1, 20 mM phosphate pH 7, 40° C.
[4] = 2 mg/mL CPD1, 20 mM phosphate pH 8, 40° C.
[5] = 10 mg/mL CPD1, 20 mM phosphate pH 6, 40° C.
[6] = 10 mg/mL CPD1, 20 mM phosphate pH 6.5, 40° C.
[7] = 10 mg/mL CPD1, 20 mM phosphate pH 7, 40° C.
[8] = 10 mg/mL CPD1, 20 mM phosphate pH 8, 40° C.

H[Aib]EGSFTSELATILD[ψ]QAARDFIAWLIQHKITD (H[Aib]EGSFTSELATILDK([γGlu-C18 diacid])QAARDFIAWLIQHKITD; not fully specified; printed as H[Aib]EGSFTSELATILD[ψ]QAARDFIAWLIQHKITD; also: X16: L or D lysine) [CPD1, GLP-1/GLP-2 dual agonist]
Aggregation (ThT), 270 mM mannitol [1]: FD
Aggregation (ThT), no added tonicity agent [1]: FD
Aggregation (ThT), 270 mM mannitol [2]: FND
Aggregation (ThT), no added tonicity agent [2]: FND
Aggregation (ThT), 270 mM mannitol [3]: FND
Aggregation (ThT), no added tonicity agent [3]: FND
Aggregation (ThT), 270 mM mannitol [4]: FND
Aggregation (ThT), no added tonicity agent [4]: FND
Aggregation (ThT), 270 mM mannitol [5]: FD
Aggregation (ThT), no added tonicity agent [5]: FD
Aggregation (ThT), 270 mM mannitol [6]: FND
Aggregation (ThT), no added tonicity agent [6]: FND
Aggregation (ThT), 270 mM mannitol [7]: FND
Aggregation (ThT), no added tonicity agent [7]: FND
Aggregation (ThT), 270 mM mannitol [8]: FND
Aggregation (ThT), no added tonicity agent [8]: FND
Amyloid formation / fibrillation (2 and 10 mg/mL CPD1, pH 6): amyloid formation was observed
Amyloid formation / fibrillation (2 and 10 mg/mL CPD1, pH 7 or 8): no fibrillation was observed

Source: patent US12576025B2, “Pharmaceutical parenteral composition of dual GLP1/2 agonist” (Zealand Pharma A/S, priority 2019, dated 2026)
